Test results: patent publication US20220001039A1, “COMPOSITIONS AND METHODS FOR DETECTING ACE2 EXPRESSION PROFILES” (Washington University, priority 2020, published 2022)
Read-outs that look alike come from different tables or passages of the source.

How the values were obtained:
ACE2 [1] = biological target: T1, ACE2 (Homo sapiens, UniProt Q9BYF1); design: from tissue; host or cells: organs of hACE2 transgenic mice, imaged in vivo by PET; species or system mice; conditions: mouse, in vivo
Text: PET images were reconstructed by an iterative three-dimensional maximum a priori algorithm.

HEK293-hACE2 xenografts = test system: HEK293-hACE2 xenografts; design: species or system mice; conditions: mouse, in vivo
Procedure: Tumors were monitored and imaging commenced after reaching >200 mm3. […] PET images were reconstructed by an iterative three-dimensional maximum a priori algorithm. […] At 1, 4, and 20 h post-injection, the animals were sacrificed for tissue dissection. The organs of interest were collected, rinsed, blotted, weighed, and counted with a γ-counter (Perkin Elmer Wizard2). The total injected radioactivity per animal was determined from the measured radioactivity in an aliquot of the injectate. Data were expressed as a percent of injected activity per gram of tissue (% IA/g).

[2] = in vivo
Text: Ex vivo biodistribution analysis of the tracer in these hACE2 expressing (and vehicle control) tumors recapitulated these imaging findings (FIG. 5A).

[3] = Acute toxicity test / body weight monitoring in mice; format: in vivo
Procedure: The experiment was carried out in 10 mice at 4-weeks of age. […] The injection was repeated on day 0, day 4, day 11, day 18 and day 25, and the weight of the mice was recorded.

ACE2 [4] = biological target: T1, ACE2; conditions: in vivo
[5] = format: physicochemical
Procedure: The solution was analyzed by radio-HPLC to assess the radiochemical purity. The HPLC was eluted with water-CH3CN system (Phase A: 0.1% TFA H2O; Phase B: 0.1% TFA CH3CN) using gradient elution (0-5 min 20% B; 5-10 min 20%-80% B; 10-12 min 80% B; 12-15 min 80%-20% B) at a flow rate of 1.0 mL/min. The radiolabeling yield was 59.9±3.9% (non-decay corrected, n=10) and the radiochemical purity was over 95%. […] At 1 h, 2 h, and 4 h time points, 10 μL aliquot was analyzed by radio-HPLC to assess the radiochemical purity.

ACE2 [6] = biological target: T1, ACE2; test: 68Ga-HZ20 PET/CT in healthy volunteers (SUVmax)
ACE2 [7] = biological target: T1, ACE2; conditions: in vivo; remark: listed apart in the source
clinical = conditions: human, in vivo, iv, total radioactivity, SUVmax
[8] = healthy volunteers average, 90 min

T1 sequence (Q9BYF1 18-805): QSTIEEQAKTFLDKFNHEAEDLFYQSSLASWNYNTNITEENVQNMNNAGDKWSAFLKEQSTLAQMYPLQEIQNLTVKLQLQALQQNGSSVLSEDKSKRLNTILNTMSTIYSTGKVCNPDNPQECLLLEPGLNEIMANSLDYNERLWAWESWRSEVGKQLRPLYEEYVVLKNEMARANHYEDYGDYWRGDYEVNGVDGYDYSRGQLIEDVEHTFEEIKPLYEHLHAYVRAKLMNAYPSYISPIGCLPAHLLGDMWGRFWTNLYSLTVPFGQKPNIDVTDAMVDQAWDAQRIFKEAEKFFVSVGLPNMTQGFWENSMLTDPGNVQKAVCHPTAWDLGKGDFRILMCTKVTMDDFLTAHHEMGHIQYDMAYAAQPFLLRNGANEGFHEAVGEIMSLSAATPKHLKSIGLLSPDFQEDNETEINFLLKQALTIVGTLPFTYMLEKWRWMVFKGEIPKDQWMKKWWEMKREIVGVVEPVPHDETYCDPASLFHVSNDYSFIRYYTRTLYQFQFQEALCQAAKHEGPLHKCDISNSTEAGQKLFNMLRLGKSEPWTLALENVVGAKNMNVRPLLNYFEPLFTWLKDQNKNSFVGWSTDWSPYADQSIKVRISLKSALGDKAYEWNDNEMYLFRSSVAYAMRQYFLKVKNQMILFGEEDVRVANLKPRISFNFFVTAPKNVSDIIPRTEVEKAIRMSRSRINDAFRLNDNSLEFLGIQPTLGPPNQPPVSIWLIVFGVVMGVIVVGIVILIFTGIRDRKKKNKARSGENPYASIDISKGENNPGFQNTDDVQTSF

CC(C)C[C@@H]1NC(=O)[C@@H]2CCCN2C(=O)[C@H](CO)NC(=O)[C@@H](NC(=O)[C@H](Cc2c[nH]cn2)NC(=O)[C@H](CO)NC(=O)[C@H](Cc2ccc(O)cc2)NC(=O)[C@H](CC(=O)O)NC(=O)CNC(=O)CCC(C(=O)O)N2CCN(CC(=O)O)CCN(CC(=O)O)CC2)CSSC[C@@H](C(=O)N[C@H](C(=O)N[C@@H](Cc2ccc(O)cc2)C(=O)N2CCC[C@H]2C(=O)N[C@@H](CC(=O)O)C(=O)N2CCC[C@H]2C(=O)N[C@@H](CCC(=O)O)C(=O)NCC(=O)NCC(=O)NCC(N)=O)[C@@H](C)O)NC(=O)[C@H](CCCCN)NC(=O)[C@H](Cc2c[nH]c3ccccc23)NC(=O)[C@H](Cc2c[nH]c3ccccc23)NC(=O)[C@@H]2CCCN2C(=O)[C@H](Cc2ccc(O)cc2)NC(=O)[C@H](Cc2ccc(O)cc2)NC(=O)[C@H](CCCNC(=N)N)NC1=O (stereo partly shown) [64Cu-HZ20, metal not drawn]
accumulation in hACE2 transgenic mice compared to wild-type strain (ACE2 [1]): significantly higher accumulation in the heart, lung, liver, and intestine
clearance from the blood pool (HEK293-hACE2 xenografts): rapid
hACE2 tumor binding (HEK293-hACE2 xenografts): Greater hACE2 tumor binding
kidney clearance (HEK293-hACE2 xenografts): greater kidney clearance
signal distribution by PET (HEK293-hACE2 xenografts): highest signal in the kidneys, high intensity in HEK293-hACE2 xenografts, and moderate in liver
tissue retention by imaging or organ counting [2]: limited or very low tissue retention

CC(C)C[C@H](NC(=O)[C@@H]1CCCN1C(=O)[C@H](CO)NC(=O)[C@H](CS)NC(=O)[C@H](Cc1c[nH]cn1)NC(=O)[C@H](CO)NC(=O)[C@H](Cc1ccc(O)cc1)NC(=O)[C@H](CC(=O)O)NC(=O)CNC(=O)CCC(C(=O)O)N1CCN(CC(=O)O)CCN(CC(=O)O)CC1)C(=O)N[C@@H](CCCNC(=N)N)C(=O)N[C@@H](Cc1ccc(O)cc1)C(=O)N[C@@H](Cc1ccc(O)cc1)C(=O)N1CCC[C@H]1C(=O)N[C@@H](Cc1c[nH]c2ccccc12)C(=O)N[C@@H](Cc1c[nH]c2ccccc12)C(=O)N[C@@H](CCCCN)C(=O)N[C@@H](CS)C(=O)N[C@H](C(=O)N[C@@H](Cc1ccc(O)cc1)C(=O)N1CCC[C@H]1C(=O)N[C@@H](CC(=O)O)C(=O)N1CCC[C@H]1C(=O)N[C@@H](CCC(=O)O)C(=O)NCC(=O)NCC(=O)NCC(N)=O)[C@@H](C)O (stereo partly shown) [64Cu-HZ-19, metal not drawn]
clearance from the blood pool (HEK293-hACE2 xenografts): rapid
liver retention (HEK293-hACE2 xenografts): increased liver retention

CC(C)C[C@@H]1NC(=O)[C@@H]2CCCN2C(=O)[C@H](CO)NC(=O)[C@@H](NC(=O)[C@H](Cc2c[nH]cn2)NC(=O)[C@H](CO)NC(=O)[C@H](Cc2ccc(O)cc2)NC(=O)[C@H](CC(=O)O)NC(=O)CNC(=O)CN2CCN(CC(=O)O)CCN(CC(=O)O)CCN(CC(=O)O)CC2)CSSC[C@@H](C(=O)N[C@H](C(=O)N[C@@H](Cc2ccc(O)cc2)C(=O)N2CCC[C@H]2C(=O)N[C@@H](CC(=O)O)C(=O)N2CCC[C@H]2C(=O)N[C@@H](CCC(=O)O)C(=O)NCC(=O)NCC(=O)NCC(N)=O)[C@@H](C)O)NC(=O)[C@H](CCCCN)NC(=O)[C@H](Cc2c[nH]c3ccccc23)NC(=O)[C@H](Cc2c[nH]c3ccccc23)NC(=O)[C@@H]2CCCN2C(=O)[C@H](Cc2ccc(O)cc2)NC(=O)[C@H](Cc2ccc(O)cc2)NC(=O)[C@H](CCCNC(=N)N)NC1=O [68Ga-HZ20, metal not drawn]
acute toxicity test ([3]; mouse, in vivo): well tolerated
SUVmax, gallbladder (ACE2 [4]): 4.32
SUVmax, left testis (ACE2 [4]): 8.65
SUVmax, renal cortex (ACE2 [4]): 18.40
SUVmax, renal cortex, left kidney (ACE2 [4]): 11.59
SUVmax, renal cortex, right kidney (ACE2 [4]): 18.40
SUVmax, right testis (ACE2 [4]): 8.79
stability [5]: stable within 2 h
SUVmax, breast, young group (ACE2 [6]; female volunteers <50 years, 90 min): 2.21±0.25
SUVmax, breast, old group (ACE2 [6]; female volunteers ≥50 years, 90 min): 1.35±0.22
SUVmax, ovary (ACE2 [6]; healthy females, 90 min): 2.12±1.42
SUVmax, uterus (ACE2 [6]; healthy females, 90 min): 2.41±0.34
SUVmax, testis (ACE2 [6]; healthy males, 90 min): 4.46±0.30
SUVmax, left testis (ACE2 [6]; healthy volunteers): 4.58±0.40
SUVmax, renal cortex, left kidney (ACE2 [6]; healthy volunteers): 22.18±1.78
SUVmax, renal cortex, right kidney (ACE2 [6]; healthy volunteers): 25.67±1.39
SUVmax, right testis (ACE2 [6]; healthy volunteers): 4.51±0.54
SUVmax, conjunctiva (ACE2 [6]; [8]): 1.71±0.08
SUVmax, esophagus (ACE2 [6]; [8]): 1.63±0.11
SUVmax, liver (ACE2 [6]; [8]): 1.59±0.14
SUVmax, pancreas (ACE2 [6]; [8]): 1.63±0.24
SUVmax, rectum (ACE2 [6]; [8]): 1.46±0.13
SUVmax, renal cortex (ACE2 [6]; [8]): 25.67±1.39
SUVmax, renal medulla (ACE2 [6]; [8]): 18.34±1.42
SUVmax difference right minus left, confidence interval, eyes (ACE2 [7]): −0.09 to 0.10
SUVmax difference right minus left, confidence interval, lungs (ACE2 [7]): −0.02 to 0.10
SUVmax difference right minus left, confidence interval, renal cortex (ACE2 [7]): 3.77 to 10.90
SUVmax difference right minus left, confidence interval, testis (ACE2 [7]): −0.38 to 0.25
SUVmax, breast (ACE2 [7]): 2.72
SUVmax, lung (ACE2 [7]): only low SUVmax
SUVmax, small intestine (ACE2 [7]): 0.48
SUVmax, testis (ACE2 [7]): 5.57
blood-brain barrier penetration (ACE2 [7]): poor blood-brain barrier penetration
SUV at 1.5 h (clinical; both, gallbladder): 2.14 ± 0.16 SUV
SUV (clinical; both, other organs (relatively low uptake)): < 1.5 SUV
SUV (clinical; both, renal cortex, corpus luteum, and testis (high uptake)): > 2.5 SUV
SUV (clinical; female, breast, gallbladder, ovary, nasal mucosa, and esophagus (median uptake)): 1.5 SUV
SUV (clinical; male, conjunctiva): 1.5 SUV

CC(=O)NCC(=O)N[C@@H](CC(=O)O)C(=O)N[C@@H](Cc1ccc(O)cc1)C(=O)N[C@@H](CO)C(=O)N[C@@H](Cc1cnc[nH]1)C(=O)N[C@H]1CSSC[C@@H](C(=O)N[C@H](C(=O)N[C@@H](Cc2ccc(O)cc2)C(=O)N2CCC[C@H]2C(=O)N[C@@H](CC(=O)O)C(=O)N2CCC[C@H]2C(=O)N[C@@H](CCC(=O)O)C(=O)NCC(=O)NCC(=O)NCC(N)=O)[C@@H](C)O)NC(=O)[C@H](CCCCN)NC(=O)[C@H](Cc2c[nH]c3ccccc23)NC(=O)[C@H](Cc2c[nH]c3ccccc23)NC(=O)[C@@H]2CCCN2C(=O)[C@H](Cc2ccc(O)cc2)NC(=O)[C@H](Cc2ccc(O)cc2)NC(=O)[C@H](CCCNC(=N)N)NC(=O)[C@H](CC(C)C)NC(=O)[C@@H]2CCCN2C(=O)[C@H](CO)NC1=O [DX600]
body weight, experimental group versus control group ([3]; 200 μg/200 μL on day 0, 4, 11, 18 and 25): no significant difference
body weight, start of monitoring ([3]; experimental group n=5): 26.5 ± 5.2 g
body weight, end of monitoring ([3]; experimental group n=5, 25 days): 41.2 ± 3.1 g
